According to patent US20030044418A1 (TEXAS A AND M UNIVERSITY SYSTEM UNIVERSITY, published 2003):

Columns and labels:
[1] = molecular target: T1, Fg treated with contortrixobin (human, UniProt P02671 20-629; P02675 45-491; P02679 27-437); assay: ELISA of Example 2, Fg-coated wells pretreated with protease, biotin labeled rSdrG(50-597)
T1 construct: Fg coated on wells and treated for 30 min at room temperature with contortrixobin from Agkistrodon contortrix contortrix; also called contortrixobin-treated Fg
T1 sequence 1: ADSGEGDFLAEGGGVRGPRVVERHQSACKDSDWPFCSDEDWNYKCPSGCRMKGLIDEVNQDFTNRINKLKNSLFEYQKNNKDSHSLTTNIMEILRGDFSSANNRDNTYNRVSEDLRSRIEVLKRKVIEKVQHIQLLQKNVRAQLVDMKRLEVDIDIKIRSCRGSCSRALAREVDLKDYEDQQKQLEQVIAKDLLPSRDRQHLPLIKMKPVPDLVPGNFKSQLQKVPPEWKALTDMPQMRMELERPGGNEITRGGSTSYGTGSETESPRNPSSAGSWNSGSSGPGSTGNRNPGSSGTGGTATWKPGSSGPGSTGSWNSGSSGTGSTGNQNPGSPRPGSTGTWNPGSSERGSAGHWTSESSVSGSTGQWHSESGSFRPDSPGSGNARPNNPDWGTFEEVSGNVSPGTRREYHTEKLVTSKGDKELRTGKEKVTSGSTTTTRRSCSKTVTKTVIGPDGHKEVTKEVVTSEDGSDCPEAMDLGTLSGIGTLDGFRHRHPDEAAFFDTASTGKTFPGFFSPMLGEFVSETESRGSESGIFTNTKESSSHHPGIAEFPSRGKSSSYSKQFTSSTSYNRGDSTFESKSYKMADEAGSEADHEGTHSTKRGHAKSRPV
T1 sequence 2: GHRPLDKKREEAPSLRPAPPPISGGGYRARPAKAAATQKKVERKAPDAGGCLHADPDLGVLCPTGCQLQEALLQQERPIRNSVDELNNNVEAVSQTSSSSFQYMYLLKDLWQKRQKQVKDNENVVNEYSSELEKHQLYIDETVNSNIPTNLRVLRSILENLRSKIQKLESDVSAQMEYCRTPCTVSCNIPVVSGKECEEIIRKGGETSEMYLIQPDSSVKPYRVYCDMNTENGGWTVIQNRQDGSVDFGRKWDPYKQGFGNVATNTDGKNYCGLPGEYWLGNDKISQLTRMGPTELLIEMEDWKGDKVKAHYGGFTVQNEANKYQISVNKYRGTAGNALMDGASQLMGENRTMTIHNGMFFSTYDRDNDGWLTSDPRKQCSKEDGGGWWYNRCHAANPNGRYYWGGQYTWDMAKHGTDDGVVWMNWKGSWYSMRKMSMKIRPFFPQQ
T1 sequence 3: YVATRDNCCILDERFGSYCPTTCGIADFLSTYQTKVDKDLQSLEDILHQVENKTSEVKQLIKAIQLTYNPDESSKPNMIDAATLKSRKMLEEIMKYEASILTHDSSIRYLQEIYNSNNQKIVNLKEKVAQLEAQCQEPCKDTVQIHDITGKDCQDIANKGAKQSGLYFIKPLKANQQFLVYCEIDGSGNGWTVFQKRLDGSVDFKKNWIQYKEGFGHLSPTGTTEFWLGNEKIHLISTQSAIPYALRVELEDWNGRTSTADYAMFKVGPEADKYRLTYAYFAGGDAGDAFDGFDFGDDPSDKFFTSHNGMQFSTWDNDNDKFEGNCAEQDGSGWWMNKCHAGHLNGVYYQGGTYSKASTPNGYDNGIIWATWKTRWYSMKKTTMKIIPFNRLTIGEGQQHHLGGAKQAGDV

[2] = molecular target: T2, thrombin digested Fg (human, UniProt P02671 36-629; P02675 45-491; P02679 27-437); assay: ELISA, Fg-coated wells pretreated with thrombin, biotin labeled rSdrG(50-597)
T2 construct: Fg coated on wells and treated with 1.0 NIH unit/ml thrombin for 30 min; also called thrombin-treated Fg; Fg treated with thrombin
T2 sequence 1: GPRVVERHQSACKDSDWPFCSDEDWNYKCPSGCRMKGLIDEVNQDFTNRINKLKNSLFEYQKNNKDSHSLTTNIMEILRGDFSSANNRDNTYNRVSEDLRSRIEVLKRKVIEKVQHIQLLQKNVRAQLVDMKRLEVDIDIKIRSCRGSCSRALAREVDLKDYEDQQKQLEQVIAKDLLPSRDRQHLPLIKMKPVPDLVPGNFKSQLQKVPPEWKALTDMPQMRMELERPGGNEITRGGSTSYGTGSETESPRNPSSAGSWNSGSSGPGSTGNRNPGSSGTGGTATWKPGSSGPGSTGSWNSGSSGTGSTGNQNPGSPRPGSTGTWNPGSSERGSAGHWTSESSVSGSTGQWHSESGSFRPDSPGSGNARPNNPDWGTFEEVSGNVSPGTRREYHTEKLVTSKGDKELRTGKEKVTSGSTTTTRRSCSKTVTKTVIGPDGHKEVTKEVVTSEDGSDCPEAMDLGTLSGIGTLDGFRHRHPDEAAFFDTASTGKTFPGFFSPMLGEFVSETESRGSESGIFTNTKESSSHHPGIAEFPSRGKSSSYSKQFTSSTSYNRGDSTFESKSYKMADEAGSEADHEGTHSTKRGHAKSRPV
T2 sequence 2: T1 sequence 2
T2 sequence 3: T1 sequence 3

[3] = molecular target: T3, Aα chain of Fg (UniProt P02671 20-629); assay: Western ligand blot, biotin labeled rSdrG(50-597)
T3 construct: Chain of native Fg on a Western ligand blot
T3 sequence: T1 sequence 1

[4] = molecular target: T4, fibrinogen (Fg) (human, UniProt P02671 20-629; P02675 31-491; P02679 27-437); assay: ELISA, increasing rSdrG(50-597) on immobilized Fg, anti-His-tag detection; apparent KD
T4 construct: Purified native Fg bought from Enzyme Research Labs, coated on microtiter wells (1 µg); also called human Fg; immobilized Fg
T4 sequence 1: T1 sequence 1
T4 sequence 2: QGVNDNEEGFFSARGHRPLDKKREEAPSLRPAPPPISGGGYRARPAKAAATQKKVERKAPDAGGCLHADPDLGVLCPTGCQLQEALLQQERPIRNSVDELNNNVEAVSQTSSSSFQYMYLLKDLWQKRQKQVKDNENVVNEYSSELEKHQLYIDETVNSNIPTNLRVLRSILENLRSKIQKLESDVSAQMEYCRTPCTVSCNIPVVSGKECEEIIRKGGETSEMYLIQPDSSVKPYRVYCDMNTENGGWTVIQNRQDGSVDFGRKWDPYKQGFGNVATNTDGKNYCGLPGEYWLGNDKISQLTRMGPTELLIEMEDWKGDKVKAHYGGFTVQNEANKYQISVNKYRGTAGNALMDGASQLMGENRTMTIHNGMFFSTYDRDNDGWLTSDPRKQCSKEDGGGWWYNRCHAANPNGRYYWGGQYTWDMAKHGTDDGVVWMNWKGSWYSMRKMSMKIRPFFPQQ
T4 sequence 3: T1 sequence 3

B1: rSdrG(50-597) (other)
chain: HHHHHHAEENTVQDVKDSNMDDELSDSNDQSSNEEKNDVINNSQSINTDDDNQIKKEETNSNDAIENRSKDITQSTTNVDENEATFLQKTPQDNTQLKEEVVKEPSSVESSNSSMDTAQQPSHTTINSEASIQTSDNEENSRVSDFANSKIIESNTESNKEENTIEQPNKVREDSITSQPSSYKNIDEKISNQDELLNLPINEYENKVRPLSTTSAQPSSKRVTVNQLAAEQGSNVNHLIKVTDQSITEGYDDSDGIIKAHDAENLIYDVTFEVDDKVKSGDTMTVNIDKNTVPSDLTDSFAIPKIKDNSGEIIATGTYDNTNKQITYTFTDYVDKYENIKAHLKLTSYIDKSKVPNNNTKLDVEYKTALSSVNKTITVEYQKPNENRTANLQSMFTNIDTKNHTVEQTIYINPLRYSAKETNVNISGNGDEGSTIIDDSTIIKVYKVGDNQNLPDSNRIYDYSEYEDVTNDDYAQLGNNNDVNINFGNIDSPYIIKVISKYDPNKDDYTTIQQTVTMQTTINEYTGEFRTASYDNTIAFSTSSGQGQGDLPPE
notes: Used biotin labeled in the Western ligand blots and in the ELISAs on protease-treated Fg; also called recombinant SdrG A-region; recombinant form of the N-terminal A-region of SdrG
[1]
  binding result: no binding (tested: 25-1000 nM)
[2]
  binding result: no binding (tested: 25-1000 nM)
[3]
  binding result: no binding
[4]
  Kd: 90 nM
